Assay results: PMC7542363

Assay: overnight CpaA digestion, SDS-PAGE
Settings: glycan changed form; control: untreated fetuin

B1: fetuin (alpha-2-HS-glycoprotein): asialofetuin (protein)
parent chain: MKSFVLLFCLAQLWGCHSIPLDPVAGYKEPACDDPDTEQAALAAVDYINKHLPRGYKHTLNQIDSVKVWPRRPTGEVYDIEIDTLETTCHVLDPTPLANCSVRQQTQHAVEGDCDIHVLKQDGQFSVLFTKCDSSPDSAEDVRKLCPDCPLLAPLNDSRVVHAVEVALATFNAESNGSYLQLVEISRAQFVPLPVSVSVEFAVAATDCIAKEVVDPTKCNLLAEKQYGFCKGSVIQKALGGEDVRVTCTLFQTQPVIPQPQPDGAEAEAPSAVPDAAGPTPSAAGPPVASVVVGPSVVAVPLPLHRAHYDLRHTFSGVASVESSSGEAFHVGKTPIVGQPSIPGGPVRLCPGRIRYFKI
In the case of B1, the “other: proteolytic processing” value is reported as “no change”.
